Laboratory results reported in the DeepSol protein solubility set.

Test: soluble on expression in E. coli; label from the status in PepcDB or PDB records

Sequence | soluble on expression in E. coli
MSKFLDRFRYFKQKGETFADGHGQLLNTNRDWEDGYRQRWQHDKIVRSTHGVNCTGSCSWKIYVKNGLVTWETQQTDYPRTRPDLPNHEPRGCPRGASYSWYLYSANRLKYPMMRKRLMKMWREAKALHSDPVEAWASIIEDADKAKSFKQARGRGGFVRSSWQEVNELIAASNVYTIKNYGPDRVAGFSPIPAMSMVSYASGARYLSLIGGTCLSFYDWYCDLPPASPQTWGEQTDVPESADWYNSSYIIAWGSNVPQTRTPDAHFFTEVRYKGTKTVAVTPDYAEIAKLCDLWLAPKQGTDAAMALAMGHVMLREFHLDNPSQYFTDYVRRYTDMPMLVMLEERDGYYAAGRMLRAADLVDALGQENNPEWKTVAFNTNGEMVAPNGSIGFRWGEKGKWNLEQRDGKTGEETELQLSLLGSQDEIAEVGFPYFGGDGTEHFNKVELENVLLHKLPVKRLQLADGSTALVTTVYDLTLANYGLERGLNDVNCATSYDDVKAYTPAWAEQITGVSRSQIIRIAREFADNADKTHGRSMIIVGAGLNHWYHLDMNYRGLINMLIFCGCVGQSGGGWAHYVGQEKLRPQTGWQPLAFALDWQRPARHMNSTSYFYNHSSQWRYETVTAEELLSPMADKSRYTGHLIDFNVRAERMGWLPSAPQLGTNPLTIAGEAEKAGMNPVDYTVKSLKEGSIRFAAEQPENGKNHPRNLFIWRSNLLGSSGKGHEFMLKYLLGTEHGIQGKDLGQQGGVKPEEVDWQDNGLEGKLDLVVTLDFRLSSTCLYSDIILPTATWYEKDDMNTSDMHPFIHPLSAAVDPAWEAKSDWEIYKAIAKKFSEVCVGHLGKETDIVTLPIQHDSAAELAQPLDVKDWKKGECDLIPGKTAPHIMVVERDYPATYERFTSIGPLMEKIGNGGKGIAWNTQSEMDLLRKLNYTKAEGPAKGQPMLNTAIDAAEMILTLAPETNGQVAVKAWAALSEFTGRDHTHLALNKEDEKIRFRDIQAQPRKIISSPTWSGLEDEHVSYNAGYTNVHELIPWRTLSGRQQLYQDHQWMRDFGESLLVYRPPIDTRSVKEVIGQKSNGNQEKALNFLTPHQKWGIHSTYSDNLLMLTLGRGGPVVWLSEADAKDLGIADNDWIEVFNSNGALTARAVVSQRVPAGMTMMYHAQERIVNLPGSEITQQRGGIHNSVTRITPKPTHMIGGYAHLAYGFNYYGTVGSNRDEFVVVRKMKNIDWLDGEGNDQVQESVK | soluble
MSKIELKQLSFAYDNQEALLFDQANITMDTNWKLGLIGRNGRGKTTLLRLLQKQLDYQGEILHQVDFVYFPQTVAEEQQLTYYVLQEVTSFEQWKLERELTLLNVDPEVLWRPFSSLSGGEKTKVLLGLLFIEENAFPLIDEPTNHLDLAGRQQVAEYLKKKKHGFILVSHDRAFVDEVVDHILAIEKSQLTLYQGNFSIYEEQKKLRDAFELAENEKIKKEVNRLKETARKKAEWSMNREGDKYGNAKEKGSGAIFDTGAIGARAARVMKRSKHIQQRAETQLAEKEKLLKDLEYIDSLSMDYQPTHHKTLLTVEELRLGYEKNWLFAPISFSINAGEIVGITGKNGSGKSSLIQYLLDNFSGDSEGEATLAHQLTISYVRQDYEDNQGTLSEFAEKNQLDYTQFLNNLRKLGMERAVFTNRIEQMSMGQRKKVEVAKSLSQSAELYIWDEPLNYLDVFNHQQLEALILSVKPAMLVIEHDAHFMKKITDKKIVLKS | not soluble
MSKKIKVGIVGATGYTGVELLRLLAAHPDVEVAAVTSRSEAGTAVADYFPSLRGVYGLAFQTPDEAGLEQCDIVFFATPNGIAMKDAPRLIEQGVRVIDLSADFRIRDIPTWEHWYGMTHAAPDLVSQAVYGLSELNREAVAQARLVANPGCYPTCVSLPLVPLLRQCRLKPGMPLIADCKSGVSGAGRKGNVGSLLCEAGDNFKAYGIAGHRHLPEIRQTIAGLQDGIAEGFVFTPHLAPMIRGMHATVYLHLSDGSDPETVLRDYYRDSPFVDILPTGSAPETRSVRGANLCRISIQQAAQSDVWVVLSVIDNLVKGAAGQAVQNMNIMFGLEETHGLDAIPLLP | not soluble
MSKKPTSAYVHIPFCTQICYYCDFSKVFIQNQPVDAYLKALIQEFDSYGIRDLKTLYIGGGTPTAITAKQLEYLLNHLERNLNLDDLEEFTIEANPGDLTPEKIAVLQRSAVNRISLGVQTFNNKQLKQIGRSHNEEQIYSTIANLKTAGFHNISIDLIYALPGQTLDQVKENVAKALALDIPHLSLYSLILEHHTVFMNKMRRGKLNLPTEDLEAEMFEYIISEMEANGFEH | not soluble
MSKLEFLAFYDELTGLPNKNSLIRWLNLKVSQMDCIDTYLIFLEVRDLEKLNVTYGYDLVDELIIHISKRIKDIAGEGNKAFKIGFDRFAIICKSENISDFIERMLSQLLLPYNVNGNLIRVNFNIGAAQIENSNEAAANLMRRCDLALIKAKEEGLNEYVIFKPSIEIQTLEHHHHHH | soluble
MSKLFGNKSQRDLKEVKPFVDKIKVAYGEIERLSDDDLRGRTAILRQKIQDYVKDERAEIDKLKVEVEGKDLDEREEIWAQVDKLEKEILDKMEVVLDEILPEAFAIIKDTARRFAQNETIRVKATDLDRDLAINHDFVSIEGDTAVYQNHWVAGGNEILW | not soluble
MSKLPMLSQNPENIKILHTAADFRYELLKQIENAQQRIYIVALYLENDDAGREIFTALYEAKQKNPTLDINVLVDWHRAQRGLIGAEKSDGNAALYREFSEKYEHSINVLGVPVRNKEVFGVLHLKGFIFDDTVVYSGASLNDVYLAHKDKYRFDRYHVLNNALLANSMVSFIKKTLIASPAVNCLSQQNRPDTKSLKPEIKELRKQLGLANYQFTSQTRKEGEVGITPLVGLGRKGNKLNNYIRTLLASATSEITICTPYFNFPKPIAKELKKALRRGVKVTIIVGDKTANDFYISPEEEFKTIAGLPYLYEINLRNFAKANETYIASRQLSLNLWKHENNSFHLKGMWVDKEYTLITGSNLNPRAWKLDLENGLLLQDPEQLLVDTKQAELDVILEHTQLIGSYKQVDKLDSYPVEVKKLIKRIKRIKADHILNQILLEHHHHHH | soluble
MSKLSIRNLTKIFGPHPEKALGLLEQGLGKEEIHRRTSHAVGVDRASFDVEEGEIVVVMGLSGSGKSTLVRCLNRLIEPTAGTVTVDGRDVTSMPVDELRRLRQRSFGMVFQNFALFPHRTVLQNAAFGLEAMGVPRAERERQAMVSLERVGLAEWAASRPAQLSGGMQQRVGLARALSLDPDILLMDEAFSALDPLIRRDMQDELLRLQDDLQKTIVFISHDLDEALKLGDRIVLMRDGAVVQIGTPEDILTNPADDYVARFVGEADVTKVLTAGSVMKRSEAVAVLGIDGPRTALRKMRRNAIATLFVLDERHRLVGLITADDAARLAAEGVRELGSIVRRDIATVPPEAPATELISLMADLPHPLAVVDERGRLAGVIVRGLLLGALAERGGVALEHHHHHH | not soluble
MSKNERMVGISRRTLVKSTAIGSLALAAGGFSLPFTLRNAAAAVQQAREKVVWGACSVNCGSRCALRLHVKDNEVTWVETDNTGSDEYGNHQVRACLRGRSIRRRINHPDRLNYPMKRVGKRGEGKFERISWDEALDTIASSLKKTVEQYGNEAVYIQYSSGIVGGNMTRSSPSASAVKRLMNCYGGSLNQYGSYSTAQISCAMPYTYGSNDGNSTTDIENSKLVVMFGNNPAETRMSGGGITYLLEKAREKSNAKMIVIDPRYTDTAAGREDEWLPIRPGTDAALVAGIAWVLINENLVDQPFLDKYCVGYDEKTLPADAPKNGHYKAYILGEGDDKTAKTPQWASQITGIPEDRIIKLAREIGTAKPAYICQGWGPQRQANGELTARAIAMLPILTGNVGISGGNSGARESTYTITIERLPVLDNPVKTSISCFSWTDAIDHGPQMTAIRDGVRGKDKLDVPIKFIWNYAGNTLVNQHSDINKTHEILQDESKCEMIVVIENFMTSSAKYADILLPDLMTVEQEDIIPNDYAGNMGYLIFLQPVTSEKFERKPIYWILSEVAKRLGPDVYQKFTEGRTQEQWLQHLYAKMLAKDPALPSYDELKKMGIYKRKDPNGHFVAYKAFRDDPEANPLKTPSGKIEIYSSRLAEIARTWELEKDEVISPLPVYASTFEGWNSPERRTFPLQLFGFHYKSRTHSTYGNIDLLKAACRQEVWINPIDAQKRGIANGDMVRVFNHRGEVRLPAKVTPRILPGVSAMGQGAWHEANMSGDKIDHGGCVNTLTTLRPSPLAKGNPQHTNLVEIEKI | soluble
MSKYWSNIVKKISPYVPGEQPKDKKYIKLNTNENPYPPSEKVLKAISAAVNESLRLYPDPACESLRNTLAKYYGIKASEVFVGNGSDELLAFSFMAFFNPGDTIIFPDITYSFYEVYSSMFSVNYRLIPLDDEFNVPVEEFFTENDGIILANPNAPTGKALPLQSIRKILEKNDDKVVIIDEAYVDFGARSSVPLIKEFENLLVIQTLSKSRALAGLRVGFALGSEQLIEGLDRVKNSINSYTLDRLALIGAEEAIKDHEYFCEIRDKIINTREWVSKKLSSMGFKVIESKANFIFISHPKINGRLLFEKYKENNILVRHFNSPRIDNFLRVSIGSDEEMNIFCEKTKEIIESLN | soluble
MSLAAGADAGPGPEPCATLVQGKFFGYFSAAAVFPANASRCSWTLRNPDPRRYTLYMKVAKAPVPCSGPGRVRTYQFDSFLESTRTYLGVESFDEVLRLCDPSAPLAFLQASKQFLQMRRQQPPQHDGLRPRAGPPGPTDDFSVEYLVVGNRNEGHHHHHH | not soluble
MSLAANMYRVGDYVYFENSSSNPYLIRRIEELNKTASGNVEAKVVCFYRRRDISNTLIMLADKHAKEIEEESETTVEADLTDKQKHQLKHRELFLSRQYESLPATHIRGKCSVALLNETESVLSYLDKEDTFFYSLVYDPSLKTLLADKGEIRVGPRYQADIPEMLLEGESDEREQSKLEVKVWDPNSPLTDRQIDQFLVVARAVGTFARALDCSSSVRQPSLHMSAAAASRDITLFHAMDTLYRHSYDLSSAISVLVPLGGPVLCRDEMEEWSASEASLFEEALEKYGKDFNDIRQDFLPWKSLTSIIEYYYMWKTTDRYVQQKRLKAAEAESKLKQVYIPTYSKPNPNQISTSNGKPGAVNGAVGTTFQPQNPLLGRACESCYATQSHQWYSWGPPNMQCRLCAICWLYWKKYGGLKMPTQSEEEKLSPSPTTEDPRVRSHVSRQAMQGMPVRNTGSPKSAVKTRQAFFLHTTYFTKFARQVCKNTLRLRQAARRPFVAINYAAIRAECKMLLNSEGHHHHHH | not soluble
MSLAAPVHAAPLAATASKFLGCAYGAQQAPGFAQYWNKLTPENGGKWGSVEAVRDQMDWSTLDAAYRFAQANQMPFQMHVMVWGNQQPEWIKTLRPAEQRREIEQWFAAVAQRYPDIALLEVVNEPLNDPPSKADTGGGNYLQALGGNGDSGWEWVLQSFRLARRHFPHTKLMINDYSITSSAQATQKYLQIVRLLQRENLVDAIGVQEHAFETTPEVAVSVHRDNLDALAATGLPIYITEFDLDGPTDAQQLADYKRVFPVFWEHPAVHGITLWGFRPGLWRDKEAAYLIRADGTERPALTWLRDYVAAHPGTEGHHHHHH | soluble
MSLADKLSLETLESWLWESANILRGSIDSSDFKNYIFGLLFLKRYNDVFDERVTKLREEENLSYGEAQEEIEDKWGKYPISARWFDLISRTENIGEALDKAFATIEANNPELQHVLTATQYGDKRVLADATLQRLLRHFNQYKLGNDDLYKADMLGDAYEYLIKQFADDAGKKGGEFYTPKAVVQLVVELIDPRPGHSVYDPTCGSGGMLVESAHHVSGLPDGTLMGKPNVLLYGQEKNLGTWAIAKLNLYLHNMHASIERGDTLVEPKHLDGDYLKTFDRVIANPPFSAKSWWTPLELSNENEQENGKKVKAPNYKQVSDPYGRLVYGVPPRGYADLAFAQHMLASLKADGRMGVILPHGVLFRSGEEGKIREGLLFGTGAASGNQPGDVIEAIVGLPSALFYNTGIPACVLILNKQKPSALKDKVIIIDGSRDYLEGKAQNSLHAEDILRIVSTHKAAFEQQVEVENYCRLVTLDEIRSNDGNLNIVRYIDNGESDEVVNVAATLAHMATLAKEEAQIDQRLNRYLMELGLLETGEGHHHHHH | soluble
